Source: article PMC8509397

Target: T1, IFNγ cellular receptor (IFNGR1 and IFNGR2) on WISH cells (human (endogenous in WISH cells)) (UniProt P15260)
T1 sequence 1: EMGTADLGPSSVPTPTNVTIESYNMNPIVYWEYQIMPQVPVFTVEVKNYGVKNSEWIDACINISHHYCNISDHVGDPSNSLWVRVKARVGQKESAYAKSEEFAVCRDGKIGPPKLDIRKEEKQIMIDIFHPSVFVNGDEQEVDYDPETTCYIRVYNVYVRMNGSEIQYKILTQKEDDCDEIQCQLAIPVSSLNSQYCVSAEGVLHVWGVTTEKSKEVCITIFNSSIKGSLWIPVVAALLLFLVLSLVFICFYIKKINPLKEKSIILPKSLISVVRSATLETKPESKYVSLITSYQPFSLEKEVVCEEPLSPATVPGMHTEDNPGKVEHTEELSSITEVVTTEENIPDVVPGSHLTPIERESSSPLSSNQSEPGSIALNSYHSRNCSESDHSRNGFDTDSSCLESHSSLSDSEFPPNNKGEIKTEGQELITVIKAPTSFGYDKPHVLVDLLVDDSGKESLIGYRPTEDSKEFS
T1 sequence 2: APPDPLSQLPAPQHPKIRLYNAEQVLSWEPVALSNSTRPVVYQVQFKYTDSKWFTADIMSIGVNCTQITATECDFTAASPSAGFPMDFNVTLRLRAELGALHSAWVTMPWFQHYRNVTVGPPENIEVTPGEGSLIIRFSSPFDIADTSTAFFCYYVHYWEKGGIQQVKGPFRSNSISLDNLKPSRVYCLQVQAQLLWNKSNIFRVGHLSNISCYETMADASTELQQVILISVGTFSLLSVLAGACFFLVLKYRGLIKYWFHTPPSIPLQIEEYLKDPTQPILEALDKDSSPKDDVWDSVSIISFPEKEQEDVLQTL

- antiproliferative activity of IFNγ (IDO induction, modified kynurenine bioassay) on WISH cells, 100 IU/mL IFNγ with LMWH (Fraxiparine): LMWH concentration that reduces the activity to 50% of control: 35 IU/mL
- inhibition of IDO induction by 100 IU/mL IFNγ on WISH cells with LMWH (Fraxiparine) 1.5 to 150 anti-Xa IU/mL; highest value at 150 IU/mL: < 80%
Substance: recombinant interferon-gamma (IFNγ) (from UniProt P01579 24-161) (ligand)
